From patent publication US20220146528A1 (NORDIC BIOSCIENCE A S, published 2022)
No end group written: not given here.

T1: biotinylated synthetic peptide GIATKGLNGP-k(Biotin) (human, not fully specified (C-terminus); also: lowercase k not explained)
T1 construct: Captured on streptavidin-coated microplates; also called biotinylated peptide; coater peptide
T1 peptide: H-GIATKGLNGP

T2: elongation of the selection peptide AGIATKGLNGP (human)
T2 construct: Synthetic peptide: the selection peptide with one alanine added at the N-terminus; also called elongated peptide; N-extended elongated version
T2 peptide: AGIATKGLNGP

T3: truncation of the selection peptide IATKGLNGP (human)
T3 construct: Synthetic peptide: the selection peptide without its N-terminal glycine; also called truncated peptide; N-truncated shortened version
T3 peptide: IATKGLNGP

B1: monoclonal antibody NB117-2F4 (antibody, mouse IgG2b, kappa, V domains shown)
VH: EVQLQESGPSLVKPSQTLSLTCSVTGDSITSGFWSWIRKFPGNKLEFMGYIKYSGDTYFNPSLKSRISITRDTSKNQYYLQLNSVTPEDTATYYCSDMDYWGQGTSVTVSS
VL: DVVMTQTPRSLPVSLGDQASISCRSSQSLVHNNGNTYLHWYLQMPGQSPKLLIYKVSNRFSGVPDRFSGSGSGTDFTLKISRVEAEDLGVYFCSQITHVPWTFGGGTKLEIKR
notes: also called mAb
B2: selection peptide GIATKGLNGP (peptide)
peptide: H-GIATKGLNGP

Assays:
[1] = target: T1, biotinylated synthetic peptide …; test: competitive ELISA, biotinylated peptide on streptavidin plate (FIG. 1 legend)
Experimental: (§1) A purified monoclonal antibody was first tested for peptide-binding specificity by three synthetic peptides, selection peptide ([…]; SEQ ID NO: 1), elongation of the selection peptide ([…]; SEQ ID NO: 3) and truncation of the selection peptide ([…]; SEQ ID NO: 4), and then used in a competitive immunoassay. After optimization with buffer, temperature, incubation time and concentrations for key reagents, the final protocol for detection of ⁴⁷⁹GIATKG (SEQ ID NO: 2) assay was developed as follows: a 96-well streptavidin pre-coated micro plate was coated with 1 ng/ml biotinylated peptide, […]-k(Biotin) (SEQ ID NO: 5) dissolved in 50 mM PBS-BTB buffer (phosphate-buffered saline with bovine serum albumin and Tween-20, pH7.4) for 30 min at 20° C. Then, the plate was washed 5 times by standard wash buffer (20 mM Tris, 50 mM NaCl, pH 7.2). 20 μL of the peptide standards, kit controls or samples were added to appropriate wells, followed by 100 μL of 23 ng/ml monoclonal antibody in 50 mM PBS-BTB buffer containing 5% Osteocalcin EIA Puf-Liq (Roche diagnostics, Germany), and incubated overnight (20±1 hr) at 4° C. After 5 times wash, 100 μL of goat anti-mouse secondary antibody (115-035-003, Jackson ImmunoResearch) was added and incubated for 1 hr at 20° C. […] The colorimetric reaction was stopped by adding 100 μL stopping solution (1% H₂SO₄) and measured at 450 nm with 650 nm as the reference.

[2] = target: T2, elongation of the selection peptide …; test: competitive ELISA, displacement of 2F4 from the coated biotinylated peptide
Experimental: (§2) A purified monoclonal antibody was first tested for peptide-binding specificity by three synthetic peptides, selection peptide ([…]; SEQ ID NO: 1), elongation of the selection peptide ([…]; SEQ ID NO: 3) and truncation of the selection peptide ([…]; SEQ ID NO: 4), and then used in a competitive immunoassay. After optimization with buffer, temperature, incubation time and concentrations for key reagents, the final protocol for detection of ⁴⁷⁹GIATKG (SEQ ID NO: 2) assay was developed as follows: a 96-well streptavidin pre-coated micro plate was coated with 1 ng/ml biotinylated peptide, […]-k(Biotin) (SEQ ID NO: 5) dissolved in 50 mM PBS-BTB buffer (phosphate-buffered saline with bovine serum albumin and Tween-20, pH7.4) for 30 min at 20° C. Then, the plate was washed 5 times by standard wash buffer (20 mM Tris, 50 mM NaCl, pH 7.2). 20 μL of the peptide standards, kit controls or samples were added to appropriate wells, followed by 100 μL of 23 ng/ml monoclonal antibody in 50 mM PBS-BTB buffer containing 5% Osteocalcin EIA Puf-Liq (Roche diagnostics, Germany), and incubated overnight (20±1 hr) at 4° C. After 5 times wash, 100 μL of goat anti-mouse secondary antibody (115-035-003, Jackson ImmunoResearch) was added and incubated for 1 hr at 20° C. After this step, the plate was washed for 5 times with wash buffer. Finally, 100 μL 3,3′,5,5′-tetramethylbenzidine (TMB) was added to each well and incubated for 15 min at 20° C. in the dark. The colorimetric reaction was stopped by adding 100 μL stopping solution (1% H₂SO₄) and measured at 450 nm with 650 nm as the reference.

[3] = target: T3, truncation of the selection peptide …; test: as above
Experimental: as §2

[4] = target: B2; test: as above
Experimental: as §2

[5] = target: B1; test: competitive ELISA (Col10neo): peptide standard competes with the coated …-k(Biotin) for 2F4
Experimental: as §1, with “7.2).” for “7.2). 20 μL of the peptide standards, kit controls or samples were added to appropriate wells, followed by 100 μL of 23 ng/ml monoclonal antibody in 50 mM PBS-BTB buffer containing 5% Osteocalcin EIA Puf-Liq (Roche diagnostics, Germany), and incubated overnight (20±1 hr) at 4° C. After 5 times wash, 100 μL of goat anti-mouse secondary antibody (115-035-003, Jackson ImmunoResearch) was added and incubated for 1 hr at 20° C.”
The inter- and intra-plate variation were determined by 10 independent runs of quality control panel (three human sera and two peptide standard) in duplicate. The lower limit of detection (LLOD) was calculated as 3SD of the mean value of 21 zero standard. […] Percent recovery was calculated as the measured concentration divided by the expected concentration corrected for dilution.

Row | binding result [1] | binding result [2] | binding result [3] | binding result [4] | IC50 [5] [µg/mL] | Binder
1 | binds | no binding (tested: 1000 ng/mL) | no binding (tested: 1000 ng/mL) | binds |  | B1
2 |  |  |  |  | 0.0419 | B2
